# Biological target: Human CD16 (biotinylated, Sino Biological Inc, cat#10389-H27H1-B) (human, UniProt P08637 17-208, biotinylated)
# Test: ELISA, biotinylated CD16 captured on neutravidin, anti-human Fab-HRP detection
# Human CD16 (biotinylated, Sino Biological Inc, cat#10389-H27H1-B), sequence (P08637 17-208): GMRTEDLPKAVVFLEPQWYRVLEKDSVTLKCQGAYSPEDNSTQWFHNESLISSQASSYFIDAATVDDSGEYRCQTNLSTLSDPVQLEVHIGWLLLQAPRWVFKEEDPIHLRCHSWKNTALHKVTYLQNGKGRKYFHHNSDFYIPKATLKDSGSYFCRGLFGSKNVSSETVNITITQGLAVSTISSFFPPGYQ
binder,measurement,value
IgG3-MAB1 (antibody) chain 1: QLLLQESGPGLVKPSETLSLTCTVSGGSLSSSFSYWVWIRQPPGKGLEWIGTIYYSGNTYYNPSLKSRLTISVDTSKNHFSLKLSSVTAADTAVYYCARRAGILTGYLDSWGQGTLVTVSS chain 2: SYVLTQSPSVSVAPGQTARITCGGNNIGSKSVHWYQQKPGQAPVLVVYDDSDRPSGIPERFSASNSGNTATLTISRVEAGDEADYYCQVWDSSSDHVVFGGGTKLTVL,EC50,3.58 µg/mL
